Assay results from article PMC11194109, “Structural basis for double-stranded RNA recognition by SID1” (Nucleic Acids Research, 2024).

Molecular target: the molecule itself
Assay: cryo-EM structure; purified cSID1 in 25 mM HEPES pH 7.4, 150 mM NaCl, 0.01% GDN; apo and mixed with 100 uM 50-bp dsRNA; C2 symmetry imposed (the dsRNA complex also refined in C1)

B1: Caenorhabditis elegans systemic RNAi-defective protein 1 (SID1) (natural protein, UniProt Q9GZC8 18-776, looked up)
chain: QNNSTTPSPIITSSNSSVLVFEISSKMKMIEKKLEANTVHVLRLELDQSFILDLTKVAAEIVDSSKYSKEDGVILEVTVSNGRDSFLLKLPTVYPNLKLYTDGKLLNPLVEQDFGAHRKRHRIGDPHFHQNLIVTVQSRLNADIDYRLHVTHLDRAQYDFLKFKTGQTTKTLSNQKLTFVKPIGFFLNCSEQNISQFHVTLYSEDDICANLITVPANESIYDRSVISDKTHNRRVLSFTKRADIFFTETEISMFKSFRIFVFIAPDDSGCSTNTSRKSFNEKKKISFEFKKLENQSYAVPTALMMIFLTTPCLLFLPIVINIIKNSRKLAPSQSNLISFSPVPSEQRDMDLSHDEQQNTSSELENNGEIPAAENQIVEEITAENQETSVEEGNREIQVKIPLKQDSLSLHGQMLQYPVAIILPVLMHTAIEFHKWTTSTMANRDEMCFHNHACARPLGELRAWNNIITNIGYTLYGAIFIVLSICRRGRHEYSHVFGTYECTLLDVTIGVFMVLQSIASATYHICPSDVAFQFDTPCIQVICGLLMVRQWFVRHESPSPAYTNILLVGVVSLNFLISAFSKTSYVRFIIAVIHVIVVGSICLAKERSLGSEKLKTRFFIMAFSMGNFAAIVMYLTLSAFHLNQIATYCFIINCIMYLMYYGCMKVLHSERITSKAKLCGALSLLAWAVAGFFFFQDDTDWTRSAAASRALNKPCLLLGFFGSHDLWHIFGALAGLFTFIFVSFVDDDLINTRKTSINIF
modifications: N-linked glycans (three glycosylation sites observed in BRD2)
notes: signal peptide in the construct; full-length cDNA in pCAG; His6 and FLAG tags were inserted after the signal peptide; also called cSID1; apo-cSID1; source: HEK293F, transiently transfected (pCAG), purified (anti-FLAG M2, Ni-NTA, SEC in GDN)
With B1 the “stoichiometry N” value was 2.
